In patent US20030180892A1:

Target: IL-17-like receptor (on the BIAcore surface)
Experiment: BIAcore (SPR), negative control conditioned media

- response (RU): 20 RU
Substance: pC4 control conditioned media
